Test results taken from patent US20030212252A1.

Biological target: Dog MCH receptor (dog)
Test: cell-based or functional assay

Dog MCH receptor (dog), sequence (Q5IJ49 other isoform, or with tags, fused parts or gaps): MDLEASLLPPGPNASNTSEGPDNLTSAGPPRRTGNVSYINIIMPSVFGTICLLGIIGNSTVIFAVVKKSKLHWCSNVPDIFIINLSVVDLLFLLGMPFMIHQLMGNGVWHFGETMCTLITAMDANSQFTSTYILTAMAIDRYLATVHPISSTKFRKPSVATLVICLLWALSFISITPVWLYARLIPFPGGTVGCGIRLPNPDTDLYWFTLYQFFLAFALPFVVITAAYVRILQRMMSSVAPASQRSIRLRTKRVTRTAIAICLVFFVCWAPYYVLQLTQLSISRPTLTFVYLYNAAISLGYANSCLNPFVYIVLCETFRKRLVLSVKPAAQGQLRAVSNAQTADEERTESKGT

- EC50 for activation of the dog MCH receptor (aequorin bioluminescence, fractional response, in transfected 293-AEQ17 cells): 30 nM
Substance: Melanin-concentrating hormone (MCH) (from UniProt P20382 147-165) (peptide)
